Experimental data from PMC11295463, “Prefoldins are novel regulators of the unfolded protein response in artemisinin resistant Plasmodium falciparum malaria [image fx3.gif]” (The Journal of Biological Chemistry, 2024).

B1: recombinant PfPFD1 (6x-His-PfPFD1) (natural protein)
chain: MSNLYDILGKAVINKEKKDEFQNLILKSEGFIDDVLHEKLRERQKKRDEILQDLFDMEILIENLKLFVNMKDKSEVETLTSLGCDSYVYADIINKNKIFIQLGYEFYLEMTLEEAIKFLKKKINLYEEKLSYWNKQISHVKAHIQILMRAISNLT
notes: Prefoldin subunit 1 of P. falciparum 3D7, PF3D7_1107500; CDS amplified from Pf3D7 cDNA; Resolved at 20 kDa on SDS-PAGE; also called rPfPFD1; Prefoldin subunit 1; source: E. coli BL21 (λDE3), pET-28a(+), purified (Ni-NTA)
B2: recombinant PfPFD2 (6x-His-PfPFD2) (natural protein)
chain: METKSNVESPNISEPKESKLTYEQIEKDRVQLVSKIEELYQDVVEHKLVLEALENVPSDRRCYRMVGEVLVERTVGEIKPALMDHKNKVEQVIAECQKQLDQKNNEISNFIKSAKAGNLPGGIINGNPSEDTNNLNDKEKKSDGIIF
notes: Prefoldin subunit 2 of P. falciparum 3D7, PF3D7_1416900; CDS amplified from Pf3D7 cDNA; Resolved at 19 kDa on SDS-PAGE; also called rPfPFD2; Prefoldin subunit 2; source: E. coli BL21 (λDE3), pET-28a(+), purified (Ni-NTA)
B3: recombinant PfPFD4 (6x-His-PfPFD4) (natural protein)
chain: MGDIKQNKYDLGLDMTVDDQKKIGKFTNLHYKEPLYEHKIKMMKENIMNIDSSIDEVSLAFDSNDIMLNIGDCFFKFDLDYIEEHLEDRKSEELANLNEMELEYKTKLNEKQKLKTELYAKFGNRIDLN
notes: Prefoldin subunit 4 of P. falciparum 3D7, PF3D7_0904500; CDS amplified from Pf3D7 cDNA; Resolved at 17 kDa on SDS-PAGE; also called rPfPFD4; Prefoldin subunit 4; source: E. coli BL21 (λDE3), pET-28a(+), purified (Ni-NTA)
B4: recombinant PfPFD6 (6x-His-PfPFD6) (natural protein)
chain: MSQEKISEIIKDISALKTSCEKLNSQLDELITQKVENEMLLEEVKVLEDDSVLHKLVGLVLVKEEKSKCYDTISRRLQYITGEIENRKKVITNSEEKLRKLFSDLEAHAGQRKIPVPQA
notes: Prefoldin subunit 6 of P. falciparum 3D7, PF3D7_0512000; CDS amplified from Pf3D7 cDNA; Resolved at 16 kDa on SDS-PAGE; also called rPfPFD6; Prefoldin subunit 6; source: E. coli BL21 (λDE3), pET-28a(+), purified (Ni-NTA)
B5: recombinant PfPFD3 (6x-His-PfPFD3) (natural protein)
chain: MSFDDLTDNTKSVRNIPGAKFIEHVTEFLQNKNEESILRLARELLLKYKFMEHAFVSRQINTQKKIPELKDALRVVQLLEKRKKIKEKKNLETFFPVEESLYARGIVQKTDKILLWLGANVMVEFPFDEATDLLNQHLERAINLSQEMDNELLWLHEQITTTEINISRIHNYIELKKGMMGKEVDKKTEQVN
modifications: RED-NHS dye label where it was the labelled protein in MST
notes: Prefoldin subunit 3 of P. falciparum 3D7, PF3D7_0718500; CDS amplified from Pf3D7 cDNA; Resolved at 24 kDa on SDS-PAGE; Unlabelled when titrated onto labelled PfPFD5; also called rPfPFD3; Prefoldin subunit 3; source: E. coli BL21 (λDE3), pET-28a(+), purified (Ni-NTA)
B6: recombinant PfK13 (∼43 kDa) (natural protein)
chain: TMIDINVGGAIFETSRHTLTQQKDSFIEKLLSGRHHVTRDKQGRIFLDRDSELFRIILNFLRNPLTIPIPKDLSESEALLKEAEFYGIKFLPFPLVFCIGGFDGVEYLNSMELLDISQQCWRMCTPMSTKKAYFGSAVLNNFLYVFGGNNYDYKALFETEVYDRLRDVWYVSSNLNIPRRNNCGVTSNGRIYCIGGYDGSSIIPNVEAYDHRMKAWVEVAPLNTPRSSAMCVAFDNKIYVIGGTNGERLNSIEVYEEKMNKWEQFPYALLEARSSGAAFNYLNQIYVVGGIDNEHNILDSVEQYQPFNKRWQFLNGVPEKKMNFGAATLSDSYIITGGENGEVLNSCHFFSPDTNEWQLGPSLLVPRFGHSVLIANI
modifications: Construct limits are not printed. The ~43 kDa band does not fit the full-length 726 aa protein (~83 kDa). It fits the BTB-Kelch propeller region, taken by convention from the BTB domain start at …

Key:
[1] = molecular target: T1, PfPFD3 (Prefoldin subunit 3, PF3D7_0718500) (Plasmodium falciparum, UniProt Q8IBR6); experiment: competitive microscale thermophoresis: labelled PfPFD3-PfPFD1 complex titrated with BPD; type: binding
T1 construct: recombinant 6x-His-PfPFD3 (CDS in pET-28a(+)), RED-NHS labelled; with PfPFD1 (PF3D7_1107500)

[2] = molecular target: T2, recombinant PfPFD5 (6x-His-PfPFD5) (P. falciparum 3D7, UniProt Q8II82 1-248, RED-NHS dye label (labelled protein in MST)); experiment: MST; Monolith NT.115; PfPFD3 or PfPFD5 labelled with RED-NHS dye, titrated with the other PfPFD subunits; 1× PBS pH 7.5, 0.01% tween-20; 10 min at room temperature; steady-state analysis; conditions: both partners purified
T2 construct: Prefoldin subunit 5 of P. falciparum 3D7, PF3D7_1128100; CDS amplified from Pf3D7 cDNA; Resolved at 30 kDa on SDS-PAGE; also called rPfPFD5; Prefoldin subunit 5; source: E. coli BL21 (λDE3), pET-28a(+), purified (Ni-NTA)
T2 sequence: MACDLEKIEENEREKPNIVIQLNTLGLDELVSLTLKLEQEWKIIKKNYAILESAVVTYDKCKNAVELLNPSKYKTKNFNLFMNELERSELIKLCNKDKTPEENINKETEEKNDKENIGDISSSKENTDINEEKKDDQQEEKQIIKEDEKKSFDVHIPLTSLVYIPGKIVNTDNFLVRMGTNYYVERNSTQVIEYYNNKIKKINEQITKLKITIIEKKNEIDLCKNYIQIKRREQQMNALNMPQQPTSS

[3] = molecular target: B5; experiment: as above; conditions: both partners purified
[4] = molecular target: B4; experiment: SPR; AutoLab ESPRIT; recombinant PfK13 (20 μM) immobilised on a gold chip by amine coupling; PfPFD6 injected at 25 nM to 5 μM; PBS; two-state conformational change model, KD by the Integrated Rate Law equation; conditions: both partners purified

Molecule	Kd [1]	Kd [2]	Kd [3]	Kd [4]
OC(CCN1CCCCC1)(c1ccccc1)C1CC2C=CC1C2 (centres unmarked) [BPD, 1-{bicyclo[2.2.1]hept-5-en-2-yl}-1-phenyl-3-(piperidin-1-yl)propan-1-ol]	1990 nM	–	–	–
B1	–	851 nM	81.6 nM	–
B2	–	42.4 nM	682 nM	–
B3	–	104 nM	11300 nM	–
B4	–	324 nM	1880 nM	–
B5	–	1340 nM	–	–
B6	–	–	–	174 nM
